B1: CDKL4 (parent)
chain: AVKKFVESEDDPVVKKIALREIRM
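Further: lentivirally expressed fusions sorted by FACS into six bins by GFP to DsRed ratio, PSI derived from sequencing read proportions per bin multiplied by bin number.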

This data set covers variants of B1. Nature of the data set: protein stability index of a GFP-peptide fusion (GPS, HEK-293T) (PSI 1-6); higher = more stable. Conditions: c terminus: a fixed tail appended.
Regarding AVKKFVESEDDPVVKKIALRHIRM [E21H], the protein stability index was 2.95.

For AVKKFVESEDDPVVKKIALRWIRM [E21W], the protein stability index was determined as 3.91.

For the variant AVKKFVESEDDPVPKKIALREIRM [V14P], the protein stability index turned out to be 3.12.

Regarding AVKKFVESEDDPVSKKIALREIRM [V14S], the protein stability index was determined as 2.98.

Turning to AVKKFVESEDDPVWKKIALREIRM [V14W], the protein stability index was found to be 2.65.

For the variant AVKKFVESEDDPVNKKIALREIRM [V14N], the protein stability index was determined as 3.5.

On to AVKKFVESEDDPVHKKIALREIRM [V14H], for which the protein stability index is 3.38.

AVKKFVESEDDPVVKKIALREIYM [R23Y]: the protein stability index came to 2.27.

As to AVKKFVESEDDPVVKKIALREIWM [R23W], the protein stability index is 2.03.

With AVKKFVESEDDPVVKKIALREIDM [R23D], the protein stability index was determined as 3.95.

As for AVKKFVESEDDPVVKKIALREIIM [R23I], the protein stability index stood at 1.71.

As to ATKKFVESEDDPVVKKIALREIRM [V2T], the protein stability index was determined as 3.35.

For the variant AHKKFVESEDDPVVKKIALREIRM [V2H], the protein stability index was determined as 3.03.

Consider AYKKFVESEDDPVVKKIALREIRM [V2Y], for which the protein stability index worked out at 2.52.

Consider ASKKFVESEDDPVVKKIALREIRM [V2S], for which the protein stability index stood at 3.51.

ANKKFVESEDDPVVKKIALREIRM [V2N]: the protein stability index turned out to be 3.63.

For AEKKFVESEDDPVVKKIALREIRM [V2E], the protein stability index worked out at 4.01.

On to ARKKFVESEDDPVVKKIALREIRM [V2R], for which the protein stability index worked out at 2.85.

For AVKKFVESEDLPVVKKIALREIRM [D11L], the protein stability index is 1.81.

In the case of AVKKFVESEDYPVVKKIALREIRM [D11Y], the protein stability index was 2.46.

As for AVKKFVESEDAPVVKKIALREIRM [D11A], the protein stability index was found to be 2.61.

Turning to AVKKFVESEDRPVVKKIALREIRM [D11R], the protein stability index was 2.61.

As for AVKKFVESEDDPVVKKIALREGRM [I22G], the protein stability index is 3.66.

On to AVKKFVESEDDPVVKKIALRERRM [I22R], for which the protein stability index was determined as 4.03.

On to AVKKFVESEDDPVVKKIALRESRM [I22S], for which the protein stability index was 3.97.

As to AVKKFVESEDDPVVKKIALREYRM [I22Y], the protein stability index was found to be 3.35.

Consider AVKKFVESEDDPVVKKIALRENRM [I22N], for which the protein stability index came out at 4.22.

AVKKFVESEDDPVVKKIALREHRM [I22H]: the protein stability index is 4.06.

Regarding AVKKFVESEDDPVVKKIALREDRM [I22D], the protein stability index is 4.

As to AVKKFVESEDDPVVKKIALREQRM [I22Q], the protein stability index was 3.62.

For the variant AVKKFVESEDDPVVKKIALREARM [I22A], the protein stability index was found to be 3.82.

As for AVKKFVESEDDPVVKKIALREVRM [I22V], the protein stability index came to 2.57.

Turning to GVKKFVESEDDPVVKKIALREIRM [A1G], the protein stability index is 3.63.

Turning to QVKKFVESEDDPVVKKIALREIRM [A1Q], the protein stability index is 3.3.

For the variant TVKKFVESEDDPVVKKIALREIRM [A1T], the protein stability index was found to be 3.1.

For NVKKFVESEDDPVVKKIALREIRM [A1N], the protein stability index was found to be 3.38.

Regarding IVKKFVESEDDPVVKKIALREIRM [A1I], the protein stability index is 2.16.

Take SVKKFVESEDDPVVKKIALREIRM [A1S]: the protein stability index stood at 3.94.

DVKKFVESEDDPVVKKIALREIRM [A1D]: the protein stability index came out at 3.75.

For KVKKFVESEDDPVVKKIALREIRM [A1K], the protein stability index was 2.91.

Turning to EVKKFVESEDDPVVKKIALREIRM [A1E], the protein stability index came to 3.85.

As to AVKKFVESEDDHVVKKIALREIRM [P12H], the protein stability index stood at 2.77.

Consider AVKKFVESEDDIVVKKIALREIRM [P12I], for which the protein stability index was determined as 2.52.

Turning to AVKKFVESEDDQVVKKIALREIRM [P12Q], the protein stability index was found to be 2.45.

As to AVKKFVESEDDWVVKKIALREIRM [P12W], the protein stability index came to 1.82.

Regarding AVKKFVESEDDNVVKKIALREIRM [P12N], the protein stability index is 3.08.

AVKKFVESEDDSVVKKIALREIRM [P12S]: the protein stability index is 2.99.

Turning to AVKKFVESEDDFVVKKIALREIRM [P12F], the protein stability index turned out to be 2.66.

For the variant AVKKFVESEDDKVVKKIALREIRM [P12K], the protein stability index was 3.23.

Turning to AVKKFVESEDDMVVKKIALREIRM [P12M], the protein stability index amounted to 1.95.

With AVKKFVESEDDPVVKKIAHREIRM [L19H], the protein stability index came to 3.76.

Take AVKKFVESEDDPVVKKIAMREIRM [L19M]: the protein stability index was found to be 3.16.

With AVKKFVESEDDPVVKKIARREIRM [L19R], the protein stability index was 2.96.

On to AVKKFVESEDDPVVKKIAGREIRM [L19G], for which the protein stability index stood at 4.26.

On to AVKKFVESEDDPVVKKIAAREIRM [L19A], for which the protein stability index was determined as 3.87.

On to AVKKFVESEDDPVVKKIACREIRM [L19C], for which the protein stability index was determined as 4.26.

Take AVKKFVESEDDPVVKKIANREIRM [L19N]: the protein stability index is 3.86.

Consider AVKKFVESEDDPVVKKIAKREIRM [L19K], for which the protein stability index was 3.67.

Take AVKKFVESEDDPVVKKIAIREIRM [L19I]: the protein stability index was determined as 3.03.

For the variant AVKKFVESEKDPVVKKIALREIRM [D10K], the protein stability index worked out at 2.68.

Take AVKKFVESEYDPVVKKIALREIRM [D10Y]: the protein stability index stood at 1.84.

For AVKKFVESEPDPVVKKIALREIRM [D10P], the protein stability index was 2.72.

In the case of AVKKFVESEVDPVVKKIALREIRM [D10V], the protein stability index came out at 2.23.

Take AVKKFVESECDPVVKKIALREIRM [D10C]: the protein stability index turned out to be 2.15.

AVKKFVESEHDPVVKKIALREIRM [D10H]: the protein stability index stood at 2.82.

For the variant AVKKFVESERDPVVKKIALREIRM [D10R], the protein stability index stood at 3.15.

As for AVKKFVESESDPVVKKIALREIRM [D10S], the protein stability index amounted to 2.83.

Take AVKKHVESEDDPVVKKIALREIRM [F5H]: the protein stability index amounted to 3.24.

As to AVKKQVESEDDPVVKKIALREIRM [F5Q], the protein stability index was 3.01.

Regarding AVKKAVESEDDPVVKKIALREIRM [F5A], the protein stability index was 3.66.

For AVKKKVESEDDPVVKKIALREIRM [F5K], the protein stability index came out at 3.55.

Consider AVKKEVESEDDPVVKKIALREIRM [F5E], for which the protein stability index stood at 3.94.

For the variant AVKKCVESEDDPVVKKIALREIRM [F5C], the protein stability index turned out to be 4.34.

In the case of AVKKVVESEDDPVVKKIALREIRM [F5V], the protein stability index was determined as 3.81.

With AVKKDVESEDDPVVKKIALREIRM [F5D], the protein stability index turned out to be 3.75.

AVKKRVESEDDPVVKKIALREIRM [F5R]: the protein stability index amounted to 3.63.

For the variant AVKKSVESEDDPVVKKIALREIRM [F5S], the protein stability index came to 4.46.

For the variant AVKKNVESEDDPVVKKIALREIRM [F5N], the protein stability index was found to be 3.14.

As to AVKKFHESEDDPVVKKIALREIRM [V6H], the protein stability index was 3.08.

For AVKKFMESEDDPVVKKIALREIRM [V6M], the protein stability index is 3.23.

As to AVKKFYESEDDPVVKKIALREIRM [V6Y], the protein stability index was determined as 2.57.

Turning to AVKKFIESEDDPVVKKIALREIRM [V6I], the protein stability index was determined as 1.93.

Consider AVKKFAESEDDPVVKKIALREIRM [V6A], for which the protein stability index was determined as 3.07.

Turning to AVKKFRESEDDPVVKKIALREIRM [V6R], the protein stability index was 2.48.

On to AVKKFKESEDDPVVKKIALREIRM [V6K], for which the protein stability index stood at 3.26.

Take AVKKFEESEDDPVVKKIALREIRM [V6E]: the protein stability index came out at 3.72.

Take AVKKFVESEDDPVVKKINLREIRM [A18N]: the protein stability index is 3.35.

AVKKFVESEDDPVVKKIHLREIRM [A18H]: the protein stability index was found to be 2.79.

Consider AVKKFVESEDDPVVKKICLREIRM [A18C], for which the protein stability index amounted to 2.25.

With AVKKFVESEDDPVVKKILLREIRM [A18L], the protein stability index was 2.29.

For the variant AVKKFVESEDDPVVKKIMLREIRM [A18M], the protein stability index was 1.94.

Take AVKKFVESEDDPVVKKIYLREIRM [A18Y]: the protein stability index amounted to 2.69.

For the variant AVKKFVESEDDPVVKKISLREIRM [A18S], the protein stability index stood at 3.4.

In the case of AVKKFVESEDDPVVKKIPLREIRM [A18P], the protein stability index turned out to be 3.57.

The values above are taken from the supplement of paper PMC10567573.
